Molecular target: Protein A expressed on Staphylococcus aureus (Staphylococcus aureus) (UniProt P38507)
Assay: yeast display; one round of selection with cell-surface biotinylated S. aureus and magnetic streptavidin-coated beads; GFP+ yeast counted by flow cytometry

Fc region of the human IgG1 protein N297Q (aglycosylated) mutant, displayed on the surface of yeast
fold enrichment of GFP+ yeast: 30 fold
